From patent US20050272636A1, “Treatment and diagnosis of a reproductive disorder by measuring or inhibiting interferon-gamma” (Adelaide Research & Innovation Pty Ltd., priority 2002, published 2005)

Tests used:
[1] = target: T1, IFNγ (Mus musculus, UniProt P01580); test: Penicillin inhibition of the IFNγ effect on GM-CSF production in uterine epithelial cells (Example 2); assay type: cell-based; conditions: DMEM +penicillin versus DMEM -penicillin
T1 construct: purchased R&D Systems, UK
T1 sequence (P01580 23-155): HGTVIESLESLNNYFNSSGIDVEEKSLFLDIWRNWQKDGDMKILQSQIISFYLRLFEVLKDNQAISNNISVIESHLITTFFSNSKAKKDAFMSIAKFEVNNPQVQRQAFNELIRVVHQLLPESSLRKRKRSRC
Protocol: Uterine Epithelial Cell Cultures. Uterine epithelial cells prepared as previously described (Robertson et al., Biol Reprod 46:1069-1079 (1992)) were pooled from 4-6 estrous C57B1/6 or C57B1/6×Balb/c F1 mice and plated in 1 ml culture wells (Nunc, Roskilde, Germany) at 1-2×10^5 cells per ml in 500 μl of Dulbecco's modified Eagles medium containing 10% FCS, […] streptomycin sulphate and […] benzyl penicillin (DMEM +penicillin). After 4 h incubation at 37° C. in 5% CO2 to allow cell adherence, a further 500 μl of DMEM +penicillin, or DMEM +penicillin plus recombinant mouse IFNγ (rIFNγ) and/or recombinant human TGFβ1 (rTGFβ), were added. In some experiments, penicillin-free DMEM (DMEM −penicillin) was used throughout. Culture supernatants were collected and replaced with fresh medium at 16 hours, then collected again 24 hours later, at which time GM-CSF content was determined and adherent cells were quantified as previously described (Robertson et al., Biol Reprod 46:1069-1079 (1992)). […]
GM-CSF bioassay: GM-CSF was assayed using the GM-CSF dependant cell line FD 5/12, essentially as previously described (Robertson et al., Biol Reprod 46:1069-1079 (1992)). Cell proliferation was determined by pulsing with 1 μCi of [^3H]-thymidine per well for the last 6 h of the assay. […] GM-CSF production is expressed as ng GM-CSF/10^5 cells/24 h. […]

[2] = tested on: IFNγ; test: Inhibitors and antagonists counteracting the GM-CSF-inhibiting actions of IFNγ in uterine epithelial cells (Example 3); assay type: cell-based, mouse; conditions: for effect of TGFβ isoform on the inhibitory effect of IFNγ on GM-CSF synthesis: added in combination with IFNγ, dose-responsive, 5 ng/ml greater effect than 0.5 ng/ml
Protocol: Several inhibitors and antagonists of IFNγ were tested for their ability to counteract the GM-CSF-inhibiting actions of IFNγ in epithelial cells.
Uterine Epithelial Cell Cultures. Uterine epithelial cells prepared by pancreatin-trypsin digest as previously described (Robertson et al., (1992) Biol. Reprod. 46:1069-1079) were pooled from 4-6 estrous adult C57B1/6×CBA F1 female mice and plated in 1 ml culture wells (Nunc, Roskilde, Germany) at 1-2×10^5 cells per ml in 500 μl of RPMI containing 10% FCS and streptomycin (RPMI-FCS). Penicillin was omitted from culture media except where specified. After 4 h incubation at 37° C. in 5% CO2 to allow cell adherence, a further 500 μl of cytokines or antibodies in RPMI-FCS, or RPMI-FCS alone, were added. Cytokine treatments included recombinant mouse interferon-γ (rmIFNγ; R&D Systems), recombinant human transforming growth factor β1 (rhTGFβ1, R&D Systems), rhTGFβ2 (R&D Systems), rhTGFβ3 (OSI Pharmaceuticals). Antibody treatments included goat anti-mouse IFNγ receptor 1 (αIFNγR; R&D Systems AF1026) and hamster anti-mouse IFNγ (αIFNγ; R&D Systems MAB4851). Culture supernatants were collected and replaced with fresh complete RPMI-FCS alone at 16 hours, then collected again 24 hours later, at which time adherent cells were quantified as previously described (Robertson et al., (1992) Biol. Reprod. 46:1069-1079). The GM-CSF content of 24 h supernatants was determined by GM-CSF bioassay or immunoassay. All treatments were performed in duplicate or triplicate.
GM-CSF bioassay and immunoassay: Bioactive GM-CSF was assayed using the GM-CSF dependant cell line FD 5/12, essentially as previously described (Robertson et al., (1992) Biol. Reprod. 46:1069-1079). Cell proliferation was determined by the addition of 1 μCi of [^3H]-thymidine per well for the last 6 h of the assay. The minimal detectable amount of GM-CSF was […] The identity of the bioactivity in uterine epithelial cell cultures was confirmed using a goat polyclonal antibody to murine GM-CSF kindly provided by J. Schreurs (DNAX, Palo Alto, Calif.) as previously described (Robertson et al., (1992) Biol. Reprod. 46:1069-1079). GM-CSF immunoactivity was in some experiments measured by commercial mouse GM-CSF specific ELISA (R & D Systems) according to the manufacturer's instructions.

[3] = tested on: human cervical epithelial cells; test: Effect of IFN-γ and TGFβ on GM-CSF synthesis in human cervical epithelial cells (Example 4); assay type: cell-based; conditions: 5.0 ng/ml recombinant human IFN-γ; 12 h; ELISA
Protocol: Human cervical epithelial cells were cultured using a modification of the technique described by Rheinwald et al., Cell 1975 3: 33143 (1975). Cervical biopsies were obtained from consenting women undergoing hysterectomy for non-malignant gynaecological indications. All the women were pre-menopausal, but no distinction was made regarding the stage of their menstrual cycle at the time of surgery. The cervical biopsies were placed in ice-cold Hank's balanced salt solution for transport to the laboratory, washed twice in antibiotic-containing medium, and incubated overnight at 4° C. in Dulbecco's modified Eagle's medium (DMEM) containing 5 U dispase (Boehringer Mannheim). Large sheets of keratinocytes were mechanically stripped from the biopsy using sterile forceps after a subsequent 1 h incubation at room temperature. Disaggregation into single cells was facilitated by incubation in DMEM/0.25% trypsin/0.05% collagenase for 30 minutes at 37° C., and repeated aspiration using a needle and syringe. […]
Supernatant was collected 12 hours later and assayed for GM-CSF activity using a commercial human GM-CSF specific ELISA (R & D Systems) according to the manufacturer's instructions. The GM-CSF content of post-treatment supernatants were normalised to the GM-CSF content of corresponding 12 h (baseline) supernatants and expressed as a percentage of control values.

[4] = tested on: mice; test: Effect of IFN-γ treatment on pregnancy outcome in mice (Example 8); assay type: in vivo; conditions: for effect on the detrimental effects of IFN-γ on pregnancy outcome: implantation rate, viable versus resorbing fetuses, fetal and placental weight on day 18
Protocol: Mice are housed under specific pathogen-free conditions at the University of Adelaide Medical School Animal House on a 12:12 light-dark cycle, and administered food and water ad libitum. Adult Balb/c×C57B1/6 F1 females (7-10 weeks old) are synchronised into estrus by caging in close proximity to males. Estrus is identified on the basis of presence of cornified epithelial cells in vaginal smears prepared at 0900-1000 h daily and examined by phase contrast microscopy. On the day of estrus (day 0) females are caged with proven fertile Balb/k males for natural mating. The day of sighting a vaginal plug is nominated day 1 of pregnancy.
Mice are randomly allocated to one of four groups and treated as follows: Group 1 (100 ng IFN-γ) mice receive three intraperitoneal injections of […] recombinant mouse IFN-γ (rmIFN-γ, R&D Systems) in 200 μl PBS containing 1% bovine serum albumin (PBS-BSA) at 1700 h on day 0, at 1000 h on day 1 and 1700hon day 1.
Group 2 (250 ng IFN-γ) receive three injections of 250 ng rmIFN-γ according to the same time schedule.
Group 3 (control) receive three injections of PBS-BSA instead of IFN-γ according to the same time schedule.
Group 4 (comparison) Mice are mated but otherwise remain untreated.
Twenty mice per group are used to ensure statistical significance in treatment effects.
Alternatively, a transcervical delivery route for IFN-γ is used. Treatments are delivered directly into the uterine lumen with the aid of a tom-cat catheter (Sovereign, St Louis Mo.). In mated animals this requires removal of vaginal plugs using forceps to allow transcervical access. Mice are randomly allocated to one of four groups and treated as follows: the first group (100 ng IFN-γ) mice receive three transcervical injections of […] recombinant mouse IFN-γ (rmIFN-γ, R&D Systems) in 200 μl PBS containing 1% bovine serum albumin (PBS-BSA) at 1700 h on day 0, at 1000 h on day 1 and 1700 h on day 1. The second group (25 ng IFN-γ) receive three injections of 25 ng rmIFN-γ according to the same time schedule. The third group (control) receive three injections of PBS-BSA instead of IFN-γ according to the same time schedule. For comparison, a fourth group of mice are mated but otherwise would remain untreated. Twenty mice per group are used to ensure statistical significance in treatment effects.
Pregnant females are sacrificed by cervical dislocation at 1000 h -1200 h on day 18 of gestation. The intact uterus of each female is removed and total, viable and resorbing implantation sites counted. Each viable fetus is dissected from the amniotic sac and umbilical cord, and fetuses and placentae weighed. Placental tissues are fixed in paraformaldehyde and processed for histological staining of paraffin sections, using Masson's trichrome stain.

**Q.** Which “ability of penicillin to inhibit the effect of IFNγ on GM-CSF production” value [1] does the source give for `CC1(C)S[C@@H]2[C@H](NC(=O)Cc3ccccc3)C(=O)N2[C@H]1C(=O)O` [penicillin, benzyl penicillin, reference compound] here?
**A.** The value was “inhibit the effect of IFNγ”.

**Q.** And the “IFNγ concentration required to inhibit GM-CSF synthesis after addition of penicillin” value ([2]; penicillin at 60 μg/ml)?
**A.** Its value is ≥ 2.5 ng/mL.

**Q.** And the “effect of penicillin on the GM-CSF inhibiting activity of IFNγ” value ([2]; penicillin at 60 μg/ml)?
**A.** Its value is “antagonised the GM-CSF inhibiting activity of IFNγ”.

**Q.** With “IFN-γ: recombinant human IFN-γ (R & D Systems), used on human cervical epithelial cells in Example 4” as the molecule, how does the “effect of IFN-γ on GM-CSF synthesis” value [3] read?
**A.** The value was “inhibited GM-CSF synthesis”.

B1: rhTGFβ2: recombinant human TGFβ2 (R&D Systems) (protein, UniProt P61812 303-414, looked up)
Transforming growth factor …: ALDAAYCFRNVQDNCCLRPLYIDFKRDLGWKWIHEPKGYNANFCAGACPYLWSSDTQHSRVLSLYNTINPEASASPCCVSQDLEPLTILYYIGKTPKIEQLSNMIVKSCKCS
modifications: Transforming growth factor beta-2
**Q.** What does the source list for B1?
**A.** effect on the detrimental effects of IFN-γ on pregnancy outcome [4]: reverses the detrimental effects of IFN-γ; effect of TGFβ isoform on the inhibitory effect of IFNγ on GM-CSF synthesis [2]: counteracted the inhibitory effect

B2: rhTGFβ3: recombinant human TGFβ3 (OSI Pharmaceuticals) (protein, UniProt P10600 301-412, looked up)
Transforming growth factor …: ALDTNYCFRNLEENCCVRPLYIDFRQDLGWKWVHEPKGYYANFCSGPCPYLRSADTTHSTVLGLYNTLNPEASASPCCVPQDLEPLTILYYVGRTPKVEQLSNMVVKSCKCS
modifications: Transforming growth factor beta-3
**Q.** With B2 as the molecule, how does the “effect on the detrimental effects of IFN-γ on pregnancy outcome” value [4] read?
**A.** The value was “reverses the detrimental effects of IFN-γ”.

**Q.** And the “effect of TGFβ isoform on the inhibitory effect of IFNγ on GM-CSF synthesis” value [2]?
**A.** Its value is “counteracted the inhibitory effect”.

B3: IFN-γ: recombinant human IFN-γ (R & D Systems), used on human cervical epithelial cells in Example 4 (protein, UniProt P01579 24-161, looked up)
Interferon gamma: QDPYVKEAENLKKYFNAGHSDVADNGTLFLGILKNWKEESDRKIMQSQIVSFYFKLFKNFKDDQSIQKSVETIKEDMNVKFFNSNKKKRDDFEKLTNYSVTDLNVQRKAIHELIQVMAELSPAAKTGKRKRSQMLFRG
**Q.** For B3, which “effect of IFN-γ on pregnancy outcome” value ([4]; peritoneal cavity or uterine lumen, day of estrus and day 1, assessed day 18) is on record?
**A.** The value was “impairs pregnancy outcome”.
